T1: human GFRAL (analyte in Biacore assays) (human, UniProt Q6UXV0 19-351, limits assumed)
T1 construct: injected in solution over captured antibody; also called hGFRAL
T1 sequence: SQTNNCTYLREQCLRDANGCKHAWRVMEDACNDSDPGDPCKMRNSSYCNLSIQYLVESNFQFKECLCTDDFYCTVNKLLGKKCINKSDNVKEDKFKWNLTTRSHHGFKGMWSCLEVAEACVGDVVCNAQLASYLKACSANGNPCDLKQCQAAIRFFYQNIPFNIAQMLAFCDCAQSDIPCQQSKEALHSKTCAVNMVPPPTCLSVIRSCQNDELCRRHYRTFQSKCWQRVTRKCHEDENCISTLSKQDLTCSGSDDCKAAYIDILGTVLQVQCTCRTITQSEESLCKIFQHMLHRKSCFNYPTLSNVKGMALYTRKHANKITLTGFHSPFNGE

T2: mouse GFRAL (analyte in Biacore assays) (mouse, UniProt Q6SJE0 20-349, limits assumed)
T2 construct: injected in solution over captured antibody
T2 sequence: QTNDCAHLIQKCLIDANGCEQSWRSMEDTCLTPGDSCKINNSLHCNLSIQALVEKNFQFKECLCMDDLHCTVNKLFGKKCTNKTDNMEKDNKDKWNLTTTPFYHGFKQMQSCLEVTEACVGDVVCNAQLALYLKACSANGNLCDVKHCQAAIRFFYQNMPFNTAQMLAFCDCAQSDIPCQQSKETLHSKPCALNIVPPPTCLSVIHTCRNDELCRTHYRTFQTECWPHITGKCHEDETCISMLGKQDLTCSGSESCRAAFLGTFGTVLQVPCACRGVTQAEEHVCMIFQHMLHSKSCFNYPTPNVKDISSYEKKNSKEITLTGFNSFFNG

T3: human GFRAL expressed on cells (human, UniProt Q6UXV0 20-394)
T3 sequence: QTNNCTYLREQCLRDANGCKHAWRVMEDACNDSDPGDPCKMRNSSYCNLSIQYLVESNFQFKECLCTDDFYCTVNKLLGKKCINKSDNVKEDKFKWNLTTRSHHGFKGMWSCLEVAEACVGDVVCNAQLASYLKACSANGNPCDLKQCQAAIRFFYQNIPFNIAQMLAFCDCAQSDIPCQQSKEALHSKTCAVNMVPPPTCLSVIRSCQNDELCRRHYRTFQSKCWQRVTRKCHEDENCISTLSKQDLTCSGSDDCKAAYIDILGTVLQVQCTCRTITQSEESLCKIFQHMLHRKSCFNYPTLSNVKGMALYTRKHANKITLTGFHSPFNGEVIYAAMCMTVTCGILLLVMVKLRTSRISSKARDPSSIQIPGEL


Legend:
[1] = target: T1, human GFRAL (analyte in Biacore assays); assay: Biacore SPR, antibody captured, GFRAL injected
Protocol: (§1) In addition, the binding affinity of antibodies to human and mouse GFRAL were measured. For example, antibodies were rank ordered based on their binding affinity to human GFRAL and mouse GFRAL by low resolution KD measurement by Biacore. Briefly, an anti-mouse Fc antibody (Sigma-Aldrich, St. Louis, Mo.) was immobilized on all four flow cells of a CM5 chip using amine coupling reagents (GE Healthcare LifeSciences, Piscataway, N.J.). Purified antibodies were captured (˜100 RUs) on flow cells 2, 3 and 4 using flow cell 1 as a reference. This was followed by injection of human or mouse GFRAL (25 nM in PBS-P buffer) at a flow rate of 70 μL/m in and monitoring the binding kinetics at 25° C.
(§2) Binding affinity measurements were also made in additional Biacore based assays. For example, equilibrium dissociation constant (KD) measurements were carried out with purified antibodies to evaluate their binding to human GFRAL or mouse GFRAL. As mentioned above, anti-mouse Fc antibody (Sigma-Aldrich, St. Louis, Mo.) was immobilized on all four flow cells of a CM5 chip using amine coupling reagents (GE Healthcare LifeSciences, Piscataway, N.J.). Purified antibodies were captured (˜100 RUs) on flow cells 2, 3 and 4 using flow cell 1 as a reference. This was followed by injection of human or mouse GFRAL in PBS-P buffer) at a flow rate of 70 μL/min and the binding kinetics were evaluated at 25° C.

[2] = target: T2, mouse GFRAL (analyte in Biacore assays); assay: Biacore SPR, antibody captured, GFRAL injected
Protocol: as §1, §2

[3] = target: T3, human GFRAL expressed on cells; assay: cell-based or functional assay
[4] = target: T3, human GFRAL expressed on cells; assay: cell-based or functional assay; remark: listed apart in the source
[5] = target: T1, human GFRAL (analyte in Biacore assays); assay: Biacore SPR, antibody captured, human GFRAL injected
Protocol: Exemplary humanized anti-GFRAL antibodies identified in Example 6 were assayed for their binding affinity to human GFRAL. Binding affinity measurements were made in Biacore based assays. For example, equilibrium dissociation constant (KD) measurements were carried out with purified antibodies to evaluate their binding to human GFRAL. Using methods described in Example II, anti-mouse Fc antibody (Sigma-Aldrich, St. Louis, Mo.) was immobilized on all four flow cells of a CM5 chip using amine coupling reagents (GE Healthcare LifeSciences, Piscataway, N.J.). Purified humanized anti-GFRAL antibodies were captured (˜100 RUs) on flow cells 2, 3 and 4 using flow cell 1 as a reference. This was followed by injection of human GFRAL in PBS-P buffer) at a flow rate of 70 μL/min and the binding kinetics were evaluated at 25° C.

Binder | Kd [1] [nM] | koff [1] [s⁻¹] | binding result [2] | IC50, ELK1-luciferase reporter (hGFRAL/hRET) [3] [nM] | IC50, ERK phosphorylation in U2OS hGFRAL/hRET cells [4] [nM] | Kd [2] [nM] | koff [2] [s⁻¹] | Kd [5] [nM]
antibody designated 6N16 (antibody, V domains shown, mouse hybridoma monoclonal) VH: QVQLQQSGSELVKPGTSMKLSCKASGYTFTSYNINWVRLRPEQGLEWIGWIFPGDDSIKYNENFRGKATLTTDKSSSTAYMHLSRLTSDDSAVYFCARSGIFYGNNFAYWGQGTLVTVSA VL: DVVMTQAPLILSVTIGQPASISCKSSQSLLDGDGETYLSWLLQRPGQSPKRLIYLVSKLDSGVPDRFTGSGSGTDFTLKISRVEAEDLGVYYCCQSTHFPLTFGAGTKLELK | 0.16 | 9.93e-05 | no binding | 1.62 | 0.27 | – | – | –
antibody designated 8C10 (antibody, V domains shown, mouse hybridoma monoclonal) VH: QVQLQQSGVELARPGAAVKLSCKASGYTFANYGLTWVKQRTGQGLEWIGEIYPGSGHTHYNEDFKGKATLTADRSSSTAYMELRSLTSEDSAVYFCARRIQLLLPVGGFVYWGQGTLVTVSA VL: DFVLTQSPATLSVTPGDSVSLSCRASQSISNNLHWYQQKSHESPRLLIKYASQSISGIPSRFSGSGSGTDFTLSINSVETEDFGVYFCQQSNSWPHTFGGGTKLEIK | < 0.1 | 7.2e-05 | – | 1.79 | 0.28 | – | – | –
antibody designated 2B11 (antibody, V domains shown, mouse hybridoma monoclonal) VH: DVQLQESGPGLVKPSQSLSLTCSVTGYSITSGYYWNWIRQFPGNKLEWMGHIANDGSNYYNPFLKHRVSITRDTSKNQFFLKLNSVTIQDTATYYCARGGSYFDYVDYWGQGTTLTVSS VL: DIQMTQTTSSLSASLGDRVTINCRASQDISNYLNWYQQKPDGTVKLLIYYTSRLHSGVPSRFSGSGSGTDYSLTITNLEQEDIATYFCQQGNTLPFTFGSGTKLEIK | 0.1 | 8.45e-05 | – | 7.9 | 0.46 | 3.7 | 0.00144 | –
antibody designated 1B3 (antibody, V domains shown, mouse hybridoma monoclonal) VH: QVHLQQPGAELVKPGASVKLSCKASGFTFTGYNINWVRLRPEQGLEWIGWIFPGDDNAKYNEKFKGKATLTTDKSSNTAYMQLSRLTSEDSAVYFCARTPVLSNYFDYWGQGTTLTVSS VL: DIQMTQSPSSLSASLGGKVTITCKASQDISKYISWYQHKPGKSPRLLIHYTSTLQPGIPSRFSGSGSGRDYSFSISNLEPEDIATYYCLQYDNLYTFGGGTKLEIK | < 0.1 | – | – | 4.14 | 0.57 | 4.4 | 0.00107 | –
antibody designated 2I23 (antibody, V domains shown, mouse hybridoma monoclonal) VH: QAQLQQSGAELVKPGASVKLSCKASGYSFTSYNIDWVRQRPEQGLEWIGWIFPGDGSTKYNEKFKGQATLTTDKSSSTTYIHLSRLTSEDSAVYFCARSGIYYGSHFVYWGQGTLVTVSA VL: not shown | 0.23 | 6.77e-05 | no binding | 7.18 | – | – | – | –
antibody designated 6G9 (antibody, V domains shown, mouse hybridoma monoclonal) VH: QVQLHQPGAELVKPGASVKLSCKTSGYTFTSYWMQWVKQRPGQGLEWIGEIDPSDSYTNYNQKFKGKATLTVDTSSTTAYMQLSSLTSEDSAVYYCARPLDRSAYYFDYWGQGTTLTVSS VL: DIVLTQSPASLAVSLGQRATISCRASESVDFSGNSFMHWYQQKPGQPPKLLIYRASNLDSGIPARFSGVGSRTDFTLTINPVEADDVATYYCQQSNEDPYTFGGGTKLEIE | < 0.1 | – | no binding | 2.65 | 0.17 | – | – | –
humanized anti-GFRAL antibody HC-375g/LC-375a (antibody, IgG1, V domains shown, humanized 5F12) VH: QVQLVQSGAEVKKPGSSVKVSCKASGYTFTDYYINWVRQAPGQGLEWIARIYPGNGNTYHNEKFKGRATLTADKSTSTAYMELSSLRSEDTAVYYCAREGLYYDYDRYFDYWGQGTLVTVSS VL: DIVMTQSPDSLAVSLGERATINCRASESVDTYGNSFMHWYQQKPGQPPKLLIYLASNLESGVPDRFSGSGSGTDFTLTISSLQAEDVAVYYCHQNNEDPPAFGGGTKVEIK | – | – | – | – | – | – | – | 0.028
humanized anti-GFRAL antibody HC-375g/LC-375j (antibody, IgG1, V domains shown, humanized 5F12) VH: QVQLVQSGAEVKKPGSSVKVSCKASGYTFTDYYINWVRQAPGQGLEWIARIYPGNGNTYHNEKFKGRATLTADKSTSTAYMELSSLRSEDTAVYYCAREGLYYDYDRYFDYWGQGTLVTVSS VL: DIVLTQSPLSLPVTLGQPASISCRASESVDTYGNSFMHWYQQRPGQSPRLLIYLASNLESGVPDRFSGSGSRTDFTLKISRVEAEDVGVYYCHQNNEDPPAFGGGTKVEIK | – | – | – | – | – | – | – | 0.057
antibody designated 1A3 (antibody, V domains shown, mouse hybridoma monoclonal) VH: EVQLQQSGPELVKPGASVKISCKASGFTFTDYYMNWVKQSHGKSLEWIGDIIPNNGVTSYNQKFKGKATLTVDKSSSTAYMELRSLTSEDSAVYYCAREWLLRGMDYWGQGTSVTVSS VL: DIVMTQAAFSNPVTLGTSASISCRSSKSLLHSNGITYLYWYLQKPGQSPQLLIYQMSNLASGVPDRFSSSGSGTDFTLRISRVEAEDVGVYYCAQHLELTWTFGGGTKLEIK | 0.11 | 7.57e-05 | no binding | – | – | – | – | –
antibody designated P1B6 (antibody, V domains shown, mouse hybridoma monoclonal) VH: EVQLQQSGPELVKPGASVKMSCKASGYTFTDYYMNWVKQTHGKSLEWIGDINPNNGGPIYNQKFKGKATLTVDKSSSTAYMELRSLTSEDSAVYYCARSDSAWFTYWGQGTLVTVSA VL: QIVLTQSPAIMSASPGEKVTMTCSASSSVSYMYWYQQKPGSSPRLLIYDTSNLASGVPVRFSGSGSGTFYSITISRMEAEDAATYYCQQWNSYPPTFGGGTKLEIK | 0.14 | 9.72e-05 | no binding | – | – | – | – | –
antibody designated P1H8 (antibody, V domains shown, mouse hybridoma monoclonal) VH: EVQLQQSGPELVKPGASVKISCKASGYTFTDYYMNWVKQSHGKSLEWIGDINPNNGGTTYNQKFKGKATLTVDKSSSTAYMELRSLTSEDSAVYYCARQGPWYFDVWGTGTTVTVSS VL: DVLMTQTPLSLPVSLGDQASISCRSSQTIVHSNGYTYLEWYLQKPGQSPKLLIYKVSNRFSGVPDRFSGSGSGTDFTLKISRVEAEDLGVYYCFQGSHVPWTFGGGTKLEIK | 0.21 | 8.99e-05 | no binding | – | – | – | – | –
antibody designated P8G4 (antibody, V domains shown, mouse hybridoma monoclonal) VH: QVQLKQSGPGLVQPSQSLSITCTVSGFSLTSYGVHWVRQSPGKGLDWLGVLWSGGSTDYNAAFISRLSISKDNSKSQVFFKMNSLQADDTAIYYCARNFGDYWGQGTSVTVSS VL: QIVLTQSPAIMSASPGEKVTMTCSASSRVSYMHWYQQKSGTSPKRWIYDTSKLASGVPARFSGSGSGTSYSLTISSMEAEDAATYYCQQWNNNPPTFGAGTTLELK | 0.21 | 0.000276 | no binding | – | – | – | – | –
